The values below come from IntAct's records for PubMed 20371349.

The labels stand for the following.
B1: Catenin delta-1 (Homo sapiens), O60716-29 (parent)
chain: MIGEEVPSDQYYWAPLAQHERGSLASLDSLRKGGPPPPNWRQPELPEVIAMLGFRLDAVKSNAAAYLQHLCYRNDKVKTDVRKLKGIPVLVGLLDHPKKEVHLGACGALKNISFGRDQDNKIAIKNCDGVPALVRLLRKARDMDLTEVITGTLWNLSSHDSIKMEIVDHALHALTDEVIIPHSGWEREPNEDCKPRHIEWESVLTNTAGCLRNVSSERSEARRKLRECDGLVDALIFIVQAEIGQKDSDSKLVENCVCLLRNLSYQVHREIPQAERYQEAAPNVANNTGPHAASCFGAKKGKGKKPIEDPANDTVDFPKRTSPARGYELLFQPEVVRIYISLLKESKTPAILEASAGAIQNLCAGRWTYGRYIRSALRQEKALSAIADLLTNEHERVVKAASGALRNLAVDARNKELIGKHAIPNLVKNLPGGQQNSSWNFSEDTVISILNTINEVIAENLEAAKKLRETQGIEKLVLINKSGNRSEKEVRAAALVLQTIWGYKELRKPLEKEGWKKSDFQVNLNNASRSQSSHSYDDSTLPLIDRNQKSDKKPDREEIQMSNMGSNTKSLDNNYSTPNERGDHNRTLDRSGDLGDMEPLKGTTPLMQKI
B2: Catenin delta-1 (Homo sapiens), O60716-5 (parent)
chain: MDDSEVESTASILASVKEQEAQFEKLTRALEEERRHVSAQLERVRVSPQDANPLMANGTLTRRHQNGRFVGDADLERQKFSDLKLNGPQDHSHLLYSTIPRMQEPGQIVETYTEEDPEGAMSVVSVETSDDGTTRRTETTVKKVVKTVTTRTVQPVAMGPDGLPVDASSVSNNYIQTLGRDFRKNGNGGPGPYVGQAGTATLPRNFHYPPDGYSRHYEDGYPGGSDNYGSLSRVTRIEERYRPSMEGYRAPSRQDVYGPQPQVRVGGSSVDLHRFHPEPYGLEDDQRSMGYDDLDYGMMSDYGTARRTGTPSDPRRRLRSYEDMIGEEVPSDQYYWAPLAQHERGSLASLDSLRKGGPPPPNWRQPELPEVIAMLGFRLDAVKSNAAAYLQHLCYRNDKVKTDVRKLKGIPVLVGLLDHPKKEVHLGACGALKNISFGRDQDNKIAIKNCDGVPALVRLLRKARDMDLTEVITGTLWNLSSHDSIKMEIVDHALHALTDEVIIPHSGWEREPNEDCKPRHIEWESVLTNTAGCLRNVSSERSEARRKLRECDGLVDALIFIVQAEIGQKDSDSKLVENCVCLLRNLSYQVHREIPQAERYQEAAPNVANNTGPHAASCFGAKKGKGKKPIEDPANDTVDFPKRTSPARGYELLFQPEVVRIYISLLKESKTPAILEASAGAIQNLCAGRWTYGRYIRSALRQEKALSAIADLLTNEHERVVKAASGALRNLAVDARNKELIGKHAIPNLVKNLPGGQQNSSWNFSEDTVISILNTINEVIAENLEAAKKLRETQGIEKLVLINKSGNRSEKEVRAAALVLQTIWGYKELRKPLEKEGWKKSDFQVNLNNASRSQSSHSYDDSTLPLIDRNQKSDKKPDREEIQMSNMGSNTKSLDNNYSTPNERGDHNRTLDRSGDLGDMEPLKGTTPLMQKI

Variants of B1 are the subject of the first test. The following applies: with cadh1_mouse Cdh1, P09803.
Chain of cadh1_mouse Cdh1, P09803 (P09803 whole entry): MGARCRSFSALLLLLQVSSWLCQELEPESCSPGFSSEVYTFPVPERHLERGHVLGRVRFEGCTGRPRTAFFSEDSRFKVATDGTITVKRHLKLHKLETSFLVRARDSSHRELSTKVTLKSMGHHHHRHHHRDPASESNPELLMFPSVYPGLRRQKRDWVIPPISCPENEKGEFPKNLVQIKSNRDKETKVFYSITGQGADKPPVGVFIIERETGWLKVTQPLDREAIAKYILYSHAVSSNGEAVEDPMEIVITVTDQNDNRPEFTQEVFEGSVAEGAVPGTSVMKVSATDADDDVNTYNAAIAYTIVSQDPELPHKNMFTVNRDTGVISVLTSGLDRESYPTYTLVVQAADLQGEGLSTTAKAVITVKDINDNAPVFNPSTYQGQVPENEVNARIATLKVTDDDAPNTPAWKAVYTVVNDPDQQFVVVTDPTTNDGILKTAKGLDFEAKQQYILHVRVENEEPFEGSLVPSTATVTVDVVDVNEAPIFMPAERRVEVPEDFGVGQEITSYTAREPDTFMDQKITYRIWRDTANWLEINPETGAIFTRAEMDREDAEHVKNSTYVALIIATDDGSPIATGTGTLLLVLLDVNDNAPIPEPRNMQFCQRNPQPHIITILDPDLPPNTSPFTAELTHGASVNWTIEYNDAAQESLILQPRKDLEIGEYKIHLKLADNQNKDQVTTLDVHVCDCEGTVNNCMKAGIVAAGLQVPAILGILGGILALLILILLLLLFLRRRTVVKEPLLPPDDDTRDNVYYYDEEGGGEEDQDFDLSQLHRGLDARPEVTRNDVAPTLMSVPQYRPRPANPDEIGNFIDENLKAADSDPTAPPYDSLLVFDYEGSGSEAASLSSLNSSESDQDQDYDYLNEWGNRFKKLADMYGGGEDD
In the case of K78M, the “effect of a mutation on the interaction” value is recorded as “disrupting interaction”. Same read-out and setting: the value for K121M was “disrupting interaction”; that for W154A was “decreasing interaction”. Still for that read-out and setting: the value for N155A was “disrupting interaction”.

Variants of B2 are the subject of the next test. The following applies: with cadh1_human CDH1, P12830.
Chain of cadh1_human CDH1, P12830 (P12830 whole entry): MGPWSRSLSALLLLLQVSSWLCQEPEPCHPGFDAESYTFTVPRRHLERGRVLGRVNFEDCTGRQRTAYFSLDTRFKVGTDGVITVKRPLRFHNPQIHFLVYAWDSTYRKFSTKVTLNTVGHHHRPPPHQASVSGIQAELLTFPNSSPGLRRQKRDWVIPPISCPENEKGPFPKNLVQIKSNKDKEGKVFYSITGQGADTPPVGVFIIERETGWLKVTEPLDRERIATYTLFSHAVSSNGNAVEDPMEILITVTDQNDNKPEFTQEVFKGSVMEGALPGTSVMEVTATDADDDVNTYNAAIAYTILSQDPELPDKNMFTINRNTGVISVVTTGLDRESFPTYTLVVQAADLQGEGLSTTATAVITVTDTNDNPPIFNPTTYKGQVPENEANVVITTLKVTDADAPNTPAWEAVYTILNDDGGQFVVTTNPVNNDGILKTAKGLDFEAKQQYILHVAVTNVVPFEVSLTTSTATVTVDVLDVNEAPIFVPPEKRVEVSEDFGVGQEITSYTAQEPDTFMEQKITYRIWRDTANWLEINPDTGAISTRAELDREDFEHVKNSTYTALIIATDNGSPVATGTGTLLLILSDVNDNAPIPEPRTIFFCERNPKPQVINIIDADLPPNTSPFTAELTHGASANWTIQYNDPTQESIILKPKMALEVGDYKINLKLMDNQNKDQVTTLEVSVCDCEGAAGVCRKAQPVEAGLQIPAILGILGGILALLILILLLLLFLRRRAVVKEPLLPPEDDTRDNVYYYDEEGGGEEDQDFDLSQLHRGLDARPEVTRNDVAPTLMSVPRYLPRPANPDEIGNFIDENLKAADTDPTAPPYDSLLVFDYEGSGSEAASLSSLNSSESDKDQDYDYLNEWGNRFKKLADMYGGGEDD
As to N478A, the “effect of a mutation on the interaction” value is on record as “decreasing interaction”. The same measure, in the same setting: the value for K401M was “decreasing interaction”.
